System: BamHI
Assay: EMSA
Conditions: value is complex half-life, not a rate; 5 mM CaCl2, no Mg2+; 2 nM BamHI, 100 pM DNA, 6000-fold unlabeled competitor

Question: For DNA duplex with single BamHI site, which complex half-life (min (half-life)) is on record?
Answer: The complex half-life (min (half-life)) was 39600.

Source: patent publication US20050123944
